{"source": "patent US10502741B2", "about": "“Means and methods for detecting activated MALT1” (Helmholtz Zentrum München Deutsches Forschungszentrum für …, priority 2014, dated 2019)", "key": {"[1]": {"biological_target": "T1, active MALT1 (Homo sapiens, UniProt Q9UDY8)", "T1 construct": "endogenous in cells; host or cells: Jurkat T cells, primary human PBMCs and T cells, DLBCL cell lines (HBL1, TMD8, OCI-Ly3, OCI-Ly10, U2932, RIVA, BJAB, Su-DHL-4, Su-DHL-6)", "T1 sequence (Q9UDY8 1-824)": "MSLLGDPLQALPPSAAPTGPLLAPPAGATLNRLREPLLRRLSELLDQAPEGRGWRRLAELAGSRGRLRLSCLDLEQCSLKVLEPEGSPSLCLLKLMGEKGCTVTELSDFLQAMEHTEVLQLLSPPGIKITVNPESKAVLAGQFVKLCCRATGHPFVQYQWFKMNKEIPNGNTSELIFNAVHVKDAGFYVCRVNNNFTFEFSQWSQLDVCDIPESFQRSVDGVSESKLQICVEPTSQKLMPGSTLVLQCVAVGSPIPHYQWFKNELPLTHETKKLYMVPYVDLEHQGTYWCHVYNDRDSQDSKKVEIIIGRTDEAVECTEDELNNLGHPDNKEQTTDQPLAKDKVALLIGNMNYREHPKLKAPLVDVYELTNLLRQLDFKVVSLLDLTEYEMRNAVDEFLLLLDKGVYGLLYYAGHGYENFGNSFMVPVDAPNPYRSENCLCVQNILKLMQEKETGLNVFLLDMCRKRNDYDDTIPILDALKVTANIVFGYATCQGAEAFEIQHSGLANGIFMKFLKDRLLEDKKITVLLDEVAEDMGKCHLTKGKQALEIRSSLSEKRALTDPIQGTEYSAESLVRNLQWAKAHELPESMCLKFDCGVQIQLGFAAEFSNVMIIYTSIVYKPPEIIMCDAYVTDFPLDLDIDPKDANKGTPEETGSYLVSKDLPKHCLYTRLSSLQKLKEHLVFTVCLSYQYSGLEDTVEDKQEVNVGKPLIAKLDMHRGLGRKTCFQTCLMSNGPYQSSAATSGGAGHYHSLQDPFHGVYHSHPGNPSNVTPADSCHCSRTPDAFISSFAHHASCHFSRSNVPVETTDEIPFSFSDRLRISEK", "test": "Labeling with diagnostic inhibitor in cell extracts (gel-based, fluorescence scan): active MALT1 band", "method": "(§1) Jurkat T cells were cultured in standard RPMI medium containing 10% FCS, 100 U/ml Penicillin/Streptomycin and 2 mM Glutamin. DNA transfection of 6 μg DNA in 8×10^6 Jurkat T cells was performed by electroporation in a GenePulser Xcell (BioRad) with a 220 Volt pulse. For siRNA experiments, Jurkat T cells were transfected with 100 nM siRNA and Atufect transfection reagent (Silence Therapeutics, Berlin). Jurkat T cells were stimulated either with 200 ng/ml PMA (phorbol 12-myristate 13-acetate) and 300 ng/ml Ionomycin (both Calbiochem) or CD3/CD28 antibody co-ligation (human CD3: 1 μg/ml; human CD28: 4 μg/ml; mouse IgG1: 2 μg/ml; mouse IgG2a: 2 μg/ml; BD Biosciences). DLBCL cell lines (HBL1, TMD8, OCI-Ly3, U2932, RIVA, BJAB, Su-DHL-4 and Su-DHL-6) were cultured in standard RPMI medium containing 20% FCS, 100 U/ml Penicillin/Streptomycin and 2 mM Glutamin. OCI-Ly10 cell line was cultured in IMDM containing 20% human serum, 100 U/ml Penicillin/Streptomycin, 2 U/ml heparine, 50 μM β-mercaptoethanol. Inhibitors 10 μM (z-VRPR-FMK, Mepazine, Thioridazine, CA-074Me) were added to the cells in media for 1 h, prior to stimulation and labeling with diagnostic MALT1 inhibitor.\nJurkat T cells (1-2×10^7), primary human PBMCs or primary human T cells (0.25 or 1×10^7) were lysed in 150 μl co-IP buffer without protease inhibitors. DLBCL (3×10^7) were lysed in 250 μl buffer. After centrifugation (14000 rpm, 10 min, 4° C.), 100 μl extract (DLBCL: 200 μl) was stained with probe 5 or probe 6 (3 μM end) for 50 min at 29° C., mixed with 4× loading dye and boiled."}, "[2]": {"biological_target": "T1, active MALT1", "test": "Probe 7-pulldown with streptavidin beads and western blot", "type": "cell-based", "conditions": "Jurkat T cells pretreated with 10 μM inhibitors, 0.1 μM probe 7", "method": "as §1\nUntreated DLBCL (1-2×10^7) or Jurkat T cells (stimulated with PMA/Ionomycin or CD3/28 or left untreated; 1-2×10^7), were lysed in 500 μl co-IP buffer without protease inhibitors, centrifuged, incubated with probe 7 (concentration as depicted) for 1 h at RT then incubated with streptavidin beads for 2 h at 4° C. Precipitate was washed, analysed by SDS-PAGE and western blot."}}, "data": [{"substance": "z-VRPR-FMK (Z N-terminal cap, FMK warhead)", "values": [{"measurement": "effect of inhibitor on probe 6 labeling of active MALT1", "setting": "[1]; HBL1 cells, inhibitors 10 μM each", "value": "sensitivity"}, {"measurement": "effect of inhibitor pretreatment on probe 5 labeling of active MALT1", "setting": "[1]; Jurkat T cells, 10 μM inhibitor before stimulation, probe 5", "value": "prevents binding of diagnostic MALT1-inhibitor"}, {"measurement": "effect of inhibitor on formation of MALT1-probe 7 complexes", "setting": "[2]", "value": "blocked"}]}]}
